The results in this text go back to the nanobody polyreactivity screen of Harvey et al. (2022).

The nature of this data set: yeast display, Sf9 membrane polyspecificity reagent, FACS + sequencing; frameworks hold sequencing errors. A digest of the protocol: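 In a synthetic yeast display library (Saccharomyces cerevisiae BJ5465), nanobody expression was induced with galactose for 36–48 hours. FACS gates were set low and high (top ~1%) using anti-HA fluorescence for expression and streptavidin fluorescence for binding of the Sf9 membrane reagent. Each polyreactivity label is drawn from the gate of origin.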
Take “QVQLVESGGGLVQAGGSLRLNCAASGSIFDDYAMGWYRQAPGKERELVAAINIRTGSTYYADSVKGRFTISRDNAKNTVYLQMHSLKPEDTEVYYCNRVVRGFVRHLDYWGQGTQVTVSS”: the “polyreactivity (PSR sort gate)” value is recorded as “low polyreactivity”.
Take “QVQLVESGGGLVQAGGSLRLRCAASGFIFRWYAMGWYRQAPGKERELVARISNGGSTYYADSVKGRFTISRDNAKKTVYLQMNSLKPEDTAVYYCAARLPYGYYSAGYYYWGQGTQVTVSS”: the “polyreactivity (PSR sort gate)” value is “high polyreactivity”.
Next, “QVQLVESGGGLVQAGGSLRLRCAASGFILYPYAMGWYRQAPGKERELVAAITSRGGRTYYADSVKGRFTISRDKAKHSVYFQMNSLKPEDTAVFYCAAKRTCNYAPLKYYSWGQGTQVTVSS”: “high polyreactivity”; “QVQLVESGGGLVQAGGSLRLRCAASGFTFRYYAMGWYRQAPGKERELVASTYYADSVKGRFTISRDNAKNTVYLQMNSLKPEDTAVYYCNVDGTSSSPFVQKHKEMDYWGQGTQVTVSS”: “low polyreactivity”; “QVQLVESGGGLVQAGGSLRLRCAASGFTFYHYAMGWYRQAPGKERELVAAITWSGGDTYYADSVKGRFTISRDNAKNTVYLQMNSLKPEDTAVYYCNADDPPGAPYYDSFDYRGDYWGQGTQVTVSS”: “low polyreactivity”.
In the case of “QVQLVESGGGLVQAGGSLRLRCAASGFTIWPYAMGWYRQAPGKERELVAGITRKGGSTYYADSVKGRFTISRDNAKNTVYLQMNSLKPEDTAVYYCNTKYAVEIDYWGQGTQVTVSS” it was “low polyreactivity”; in that of “QVQLVESGGGLVQAGGSLRLRCAASGFTLRLYTMAWYRQAPGQERELVAAINKRGGSTYYADSVKGRFTISRDNAKNSVYLQMISLKPEDTAVYYCANVPGYKAYEYDYWGQGTQVTVSS”, “high polyreactivity”.
Regarding “QVQLVESGGGLVQAGGSLRLRCAASGINFGYYAMGWYRQAPGKERELVAAITSGASTDYADSVKGRFTISRDNAKNTVYLQMNSLKPEDTAVYYCNADTSASTYTFPFDYCGQGTQVTVSS”, the “polyreactivity (PSR sort gate)” value is listed as “low polyreactivity”.
In the case of “QVQLVESGGGLVQAGGSLRLRCAASGLTFRYYAMGWYRQAPGKERELVAAISRTGRTNYSDSVKGRFTISRDNAKNTVYLQMNSLKPEDTAVYYCAATGIYAKALLWYDYWGQGTQVTVSS” it was “high polyreactivity”; in that of “QVQLVESGGGLVQAGGSLRLRCAASGLTFVRYTMGWYRPAPGKERELVAAITYSDASTYYADSVKGRFTISRDNAKNTVYLQKNSLKPEDTAVYYCAAVYFGGPRSNSPYSRYGYWGQGTQVTVSS”, “low polyreactivity”.
Next, “QVQLVESGGGLVQAGGSLRLRCAASGLTFWGYPMGWYRQAPGKEREFVASITSGGGSTYYADSVKGRFTISRDNAKNTVYLQMNILNPEDTAVYYCNVDVHLYLYKSYTYRYYYWGQGTQVTVSS”: “low polyreactivity”; “QVQLVESGGGLVQAGGSLRLRCAASGRIFDYYAMGWYRPAPGNERELVAALSSSVGNTYYADSVKGRFTISRDNAKNTVYLQMNSLKPEDTAVYYCADNYYVRSSYEVEYDYWGQGTQVTVSS”: “low polyreactivity”.
With “QVQLVESGGGLVQAGGSLRLRCAASGRIFPDNAMGGYRQAPGKERELVAAITYSGGSTSYADSVKGRFTISRDNAKNTVYLQMNRLKPEDTAVYYCIKAGGTSYDYVRVDKFPGVYWGQGTQVTVSS”, the “polyreactivity (PSR sort gate)” value is “low polyreactivity”.
“QVQLVESGGGLVQAGGSLRLRCAASGRIFRLYDMGWYRHAPGKEREFVAAISSSGDSTYYADSVKGRFTISRDNAKNTVYLQMNSLKPEDTAVYYCAAVTRRYVLSTFYYWGQGTQVTVSS”: the “polyreactivity (PSR sort gate)” value was “high polyreactivity”.
Next, “QVQLVESGGGLVQAGGSLRLRCAASGRIFRSYAMGWYRQAPGKEWEMVAAITSGTRTNYADSVKGRCTISRDNAKNTVYLQMNSLKPEDTAVSYCAARGSGFPPYRTRNYWGQGTQVTVSS”: “high polyreactivity”; “QVQLVESGGGLVQAGGSLRLRCAASGRIFTYYTMGWYIQAAGKEMELDANITTGGSTNYADSVKGRFTISRDNAENTVYLQMNSLKPEDSAVYYCNKDGVVEVRFTGRHEYDYWGQGTQVTVSS”: “low polyreactivity”; “QVQLVESGGGLVQAGGSLRLRCAASGRIFVHYVMVWSRQAPGKEREFVAAITIGSTYADSVKGRFTISRDNAKNTVYLQMNSLKPEDTAVYYCNARWVVNVRTQGSPPYKYDYWGQGSQVTVSS”: “low polyreactivity”.
On to “QVQLVESGGGLVQAGGSLRLRCAASGRIFYSNTMGWYRQAPGKERELVADITSGGSTKYADSVKGRFTISRDNAKNTVYLQMISLKPEDTAVYYCAAGERYDWWYGGFQGYDYWGQGTQVTVSS”, for which the “polyreactivity (PSR sort gate)” value is on record as “high polyreactivity”.
Consider “QVQLVESGGGLVQAGGSLRLRCAASGRTFAVYAMGWYRQAPGKERELVAAITLGASRTYYADSVKGRFTISRDNAKNTVYLQMNSLKPEDTAVYYCAVTWGARTDQWSLRVFVGYDYWGQGTQVTVSS”, for which the “polyreactivity (PSR sort gate)” value was “low polyreactivity”.
On to “QVQLVESGGGLVQAGGSLRLRCAASGRTFDGYAMGWYRQAHGKERELVAAISKRGGSTYYADSVKGRCTISRDNAKNSVYFQMNSLKPEDTAVYYCNKRYFGDQTWVGGDSWGQGTQVTVSS”, for which the “polyreactivity (PSR sort gate)” value is recorded as “high polyreactivity”.
“QVQLVESGGGLVQAGGSLRLRCAASGRTFGEYTMGWYRQAPGKERELVAAISSAGRTNYADSVKGRFTISRDNAKNTVYLQMNSLKPEDSGVYYCAADWTDDVRGYDYWGQGTQVTVSS”: the “polyreactivity (PSR sort gate)” value is “low polyreactivity”.
In the case of “QVQLVESGGGLVQAGGSLRLRCAASGRTFRTYTMGWYRKAPGKERELVAAISYSGGSTYYADSVKGRFTISRDNAKNTVYLQMNSLKPEDTAVYYCAIRPYPYKYDYWGQGTQVTVSS” it was “high polyreactivity”; in that of “QVQLVESGGGLVQAGGSLRLRCAASGRTFWVNAMGCDRQAPGTERELVAGITFRGGSTDYADSVKGRFTISRDNAQNTVYLQMNRLKPEDTAVDDCAARVYRYGAMDYWGQGTQVTVSS”, “high polyreactivity”; in that of “QVQLVESGGGLVQAGGSLRLRCAASGRTFYGYAMGWYRQAPGKEREFVAAITYTGGRTYYADSVKGRFTISRDNAKNTVYLQMNSLKPEDTAVYYCNAYYYYVNQGRFEYGYWGQGTQVTVSS”, “high polyreactivity”.
With “QVQLVESGGGLVQAGGSLRLRCAASGRTFYYAMGWYRQAPGKERYADSVKGRFTISRDNAKNTVYLQMNSLKPEDTAVYYCAAKVPDPPSLDESDYWGQVTQVTVSS”, the “polyreactivity (PSR sort gate)” value is “low polyreactivity”.
In the case of “QVQLVESGGGLVQAGGSLRLRCAASGRTLVAYAMGWYRQAPGKERELVAAIDTDTGITYYADSVKGRFTISRDNAKNTVYLQMNSLKPEDTAVYYCAAETYYAVSTGYDFDYWGQGTQVTVSS” it was “high polyreactivity”.
For the sequence “QVQLVESGGGLVQAGGSLRLRCAASGSIFFRYAMGWYRQAPGKERELVANISSGGGNTYYADSVKGRFTISRDNAKNTVYLQMNSLKPEDTAVYYCARRLATRGHTYDYWGQGTQVTVSS”, the “polyreactivity (PSR sort gate)” value is given as “low polyreactivity”.
Take “QVQLVESGGGLVQAGGSLRLRCAASGSIFVYYAMGWYRQAPGKERELVAAITWRGDNTYYADSVKGRFTISRDNAKNSVYLQMNSLKPEDTAVYYCAADSYTSIFDYWGQGTQVTVSS”: the “polyreactivity (PSR sort gate)” value is “low polyreactivity”.
In the case of “QVQLVESGGGLVQAGGSLRLRCAASGSIFYRNAMGWNRQAPGKERELVSANTRTGGSTYYADSVQARFTISRDNAKNTVYLQMNSLKPEDTAVYYCPAETWYRWPRSAWRFDYWGQGTQVNVSS” it was “high polyreactivity”; in that of “QVQLVESGGGLVQAGGSLRLRCAASGSTFAYYAMGWYRQAPGKEREFVATITWTGGSTNYADSVKARFTISRDNAKNTVYLQMNSLKPEDTAVYYCAAAFVISYDYWGQGTQVTVSS”, “high polyreactivity”.
